From US20190048055A1 come the findings set out here.

This test deals with CD38 molecules expressed on Daudi human B-cell lymphoma cells (human) (UniProt P28907). The test is described as follows: cell-based or functional assay.

In turn, anti-CD38 Ab (daratumumab) (antibody) yielded an ADCC of human PBMCs against Daudi cells, dose response of anti-CD38 Ab (0.1 nM to 50 nM); lowest antibody concentration with increased killing of 0.1 nM.
